# Experimental data: PMC9177983, “Mechanism of transcription modulation by the transcription-repair coupling factor”
# B1: dT6_S18:bio_AS18 (dsDNA)
# DNA 1: TTTTTTGCCTCGCTGCCGTCGCCA
# DNA 2: TGGCGACGGCAGCGAGGC
# B2: NT_49_bio:TS_49 (dsDNA)
# DNA 1: CACTACTGCGACTTACAGACATCGAGAGGGTAATGGCGAATAGCACTGA
# DNA 2: TCAGTGCTATTCGCCATTACCCTCTCGATGTCTGTAAGTCGCAGTAGTG
# modifications: internal Cy3 in TS_49 after nt 31
# B3: 49-mer with 9-nt bubble (NT_49_bio_bubble:TS_49) (dsDNA)
# DNA 1: CACTACTGCGACTTACAGACTTTTTTTTTGTAATGGCGAATAGCACTGA
# DNA 2: TCAGTGCTATTCGCCATTACCCTCTCGATGTCTGTAAGTCGCAGTAGTG
# B4: EC scaffold 49-mer (TS_49:NT_49_bio:RNA_15) (mixed)
# DNA 1: TCAGTGCTATTCGCCATTACCCTCTCGATGTCTGTAAGTCGCAGTAGTG
# DNA 2: CACTACTGCGACTTACAGACATCGAGAGGGTAATGGCGAATAGCACTGA
# RNA: AUAUAUAUCGAGAGG
# modifications: internal Cy3 in TS_49 after nt 31
# B5: dT15_S18:bio_AS18 (dsDNA)
# DNA 1: TTTTTTTTTTTTTTTGCCTCGCTGCCGTCGCCA
# DNA 2: TGGCGACGGCAGCGAGGC
# B6: S18:bio_AS18 (dsDNA)
# DNA 1: GCCTCGCTGCCGTCGCCA
# DNA 2: TGGCGACGGCAGCGAGGC
# B7: bio_dT40_S18 58-mer ssDNA (ssDNA)
# DNA: TTTTTTTTTTTTTTTTTTTTTTTTTTTTTTTTTTTTTTTTGCCTCGCTGCCGTCGCCA
# B8: dT40_S18:bio_AS18 (dsDNA)
# DNA 1: TTTTTTTTTTTTTTTTTTTTTTTTTTTTTTTTTTTTTTTTGCCTCGCTGCCGTCGCCA
# DNA 2: TGGCGACGGCAGCGAGGC
# B9: Cy3_dT40_S18:bio_AS18_Cy5 (dsDNA)
# DNA 1: TTTTTTTTTTTTTTTTTTTTTTTTTTTTTTTTTTTTTTTTGCCTCGCTGCCGTCGCCA
# DNA 2: TGGCGACGGCAGCGAGGC
# How the values were obtained:
# Mfd(R953A) = Mfd(R953A) (Escherichia coli, UniProt P30958 1-1148, R953A); assay: SPR; 0.5 mM ATPgS; SPR: 30 mM Tris/HCl pH 7.6, 40 mM KCl, 5 mM MgCl2, 0.005% P20, 0.25 mM EDTA, 0.5 mM DTT, 0.5 mM ATPgS, 20 C; smFRET: 20 mM Tris/HCl pH 8.0, 40 mM KCl, 5 mM MgCl2, 1 mM 2-mercaptoethanol; settings: protein: recombinant; tags: none stated; label: 5' biotin on AS18; 5' overhang 6 nt (template)
# Mfd [1] = molecular target: T1, Mfd (Escherichia coli, UniProt P30958 1-1148); assay: as above; settings: protein: recombinant, tags: none stated
# Mfd [2] = molecular target: T1, Mfd; assay: SPR; ATPgS; SPR: 30 mM Tris/HCl pH 7.6, 40 mM KCl, 5 mM MgCl2, 0.005% P20, 0.25 mM EDTA, 0.5 mM DTT, 0.5 mM ATPgS, 20 C; smFRET: 20 mM Tris/HCl pH 8.0, 40 mM KCl, 5 mM MgCl2, 1 mM 2-mercaptoethanol; settings: protein: recombinant; tags: none stated; label: 3' bioTEG on NT; 9-nt non-complementary bubble (dT9 in NT); blunt ends
# Mfd;RNAP core = Mfd;RNAP core (Escherichia coli;Escherichia coli, UniProt P30958;P0A7Z4;P0A8V2;P0A8T7;P0A800 1-1148;1-329;1-1342;1-1407;2-91, |); assay: SPR; 0.5 mM ATPgS; Mfd titrated onto immobilized RNAP EC; SPR: 30 mM Tris/HCl pH 7.6, 40 mM KCl, 5 mM MgCl2, 0.005% P20, 0.25 mM EDTA, 0.5 mM DTT, 0.5 mM ATPgS, 20 C; smFRET: 20 mM Tris/HCl pH 8.0, 40 mM KCl, 5 mM MgCl2, 1 mM 2-mercaptoethanol; settings: protein: recombinant;recombinant; tags: none stated;His; copies: 1;2;1;1;1; label: 3' bioTEG on NT; iCy3 on TS; transcription bubble with RNA:DNA hybrid
binder,measurement,setting,value
B1,binding signal,Mfd(R953A),2.3 fold weaker Kd than wild type
B2,Kd,"Mfd [1]; label: 3' bioTEG on NT, iCy3 on TS, blunt",170 ± 20 nM
B3,Kd,Mfd [2],395 ± 7 nM
B4,Kd,Mfd;RNAP core,127 ± 6 nM
B5,Kd,"Mfd [1]; label: 5' biotin on AS18, 5' overhang 15 nt (template)",220 ± 10 nM
B6,Kd,"Mfd [1]; label: 5' biotin on AS18, blunt",90 ± 4 nM
B7,Kd,"Mfd [1]; label: 5' biotin, single strand",~4000 nM
B8,Kd,"Mfd [1]; label: 5' biotin on AS18, 18 bp with 5' overhang 40 nt",300 ± 10 nM
B9,Kd,"Mfd [1]; label: 5' Cy3, 5' biotin and 3' Cy5 on AS18, 18 bp with 5' overhang 40 nt",390 ± 10 nM
